{"source": "patent US20220002389A1", "binders": {"B1": {"name": "SW-1C10 (1C10 antibody produced in the cocoons of transgenic silkworms) (antibody, human IgG1, kappa, V domains shown)", "VH": "EVQLVESGGGVVQPGRSLRVSCVASGFMFSNYAMHWVRQTAGKGLEWVAIISNDGSDKYYADSVQGRFTVSRDNSQNTLFLQMSGLRPEDSGLYYCARDLDQTIPDLTAPAFEVWGQGTMVTVSS", "VL": "DIVMTQSPLSLAVTPGEPASISCRSSQSLLHSDGNNYLDWYLQKPGQSPQLLIYLTSNRASGVPDRFSGSGSGTDFTLKISRVEAEDVGVYFCMQSLQTWTFGQGTKVEIKR", "modifications": "N-glycans without core fucose (silkworm-produced)"}, "B2": {"name": "293A-1C10 (1C10 antibody of 293A origin) (antibody, human IgG1, kappa, V domains shown)", "VH": "B1 VH", "VL": "B1 VL"}}, "key": {"[1]": {"molecular_target": "HIV-1 BaL strain envelope protein (gp120) on BaL-infected CEM.NKR-CCR5 (NKR24) cells (HIV-1 BaL strain)", "test": "flow cytometry on BaL-infected NKR24 cells; antibody at 100 µg/mL"}, "[2]": {"molecular_target": "HIV-1 BaL strain envelope protein (gp120) on BaL-infected CEM.NKR-CCR5 (NKR24) cells (HIV-1 BaL strain)", "test": "flow cytometry on BaL-infected NKR24 cells; antibody at 4 µg/mL"}, "[3]": {"molecular_target": "HIV-1 BaL strain envelope protein (gp120) on BaL-infected CEM.NKR-CCR5 (NKR24) cells (HIV-1 BaL strain)", "test": "flow cytometry on BaL-infected NKR24 cells; antibody at 0.16 µg/mL"}, "[4]": {"molecular_target": "HIV-1 BaL strain envelope protein (gp120) on BaL-infected CEM.NKR-CCR5 (NKR24) cells (HIV-1 BaL strain)", "test": "flow cytometry on BaL-infected NKR24 cells; antibody at 20 µg/mL"}, "[5]": {"molecular_target": "HIV-1 BaL strain envelope protein (gp120) on BaL-infected CEM.NKR-CCR5 (NKR24) cells (HIV-1 BaL strain)", "test": "flow cytometry on BaL-infected NKR24 cells; antibody at 0.032 µg/mL"}, "[6]": {"molecular_target": "HIV-1 BaL strain envelope protein (gp120) on BaL-infected CEM.NKR-CCR5 (NKR24) cells (HIV-1 BaL strain)", "test": "cell-based or functional assay"}, "[7]": {"molecular_target": "HIV-1 BaL strain envelope protein (gp120) on BaL-infected CEM.NKR-CCR5 (NKR24) cells (HIV-1 BaL strain)", "test": "flow cytometry on BaL-infected NKR24 cells; antibody at 0.8 µg/mL"}}, "data": [{"binder": "B1", "values": [{"measurement": "MFI", "setting": "[1]", "value": 1900, "unit": "MFI"}, {"measurement": "MFI", "setting": "[2]", "value": 1440, "unit": "MFI"}, {"measurement": "MFI", "setting": "[3]", "value": 1080, "unit": "MFI"}, {"measurement": "MFI", "setting": "[4]", "value": 1640, "unit": "MFI"}, {"measurement": "MFI", "setting": "[5]", "value": 779, "unit": "MFI"}, {"measurement": "IC50 (50% inhibitory concentration) of infection of TZM-bl cells by BaL virus, luciferase RLU; 'Dose at Y = 50'", "setting": "[6]", "value": 0.108, "unit": "µg/mL"}, {"measurement": "MFI", "setting": "[7]", "value": 1260, "unit": "MFI"}]}, {"binder": "B2", "values": [{"measurement": "MFI", "setting": "[1]", "value": 1780, "unit": "MFI"}, {"measurement": "MFI", "setting": "[2]", "value": 1530, "unit": "MFI"}, {"measurement": "MFI", "setting": "[3]", "value": 1210, "unit": "MFI"}, {"measurement": "MFI", "setting": "[4]", "value": 1780, "unit": "MFI"}, {"measurement": "MFI", "setting": "[5]", "value": 983, "unit": "MFI"}, {"measurement": "IC50 (50% inhibitory concentration) of infection of TZM-bl cells by BaL virus, luciferase RLU; 'Dose at Y = 50'", "setting": "[6]", "value": 0.133, "unit": "µg/mL"}, {"measurement": "MFI", "setting": "[7]", "value": 1290, "unit": "MFI"}]}]}
